Our source for the fold precipitation of Proinsulin over the anti-V5 control values is paper PMC7239452.

The assay deals with ERp29 (ER protein of 29 kDa; mouse, Min-6 insulinoma cells) (mouse (endogenous in Min-6)) (UniProt P57759). Kind of assay: co-IP; Min-6 lysate, non-denaturing; 50 ug lysate protein, 2 ul primary antibody 1 h, Protein G agarose 2 h at room temperature; precipitated Proinsulin quantified by Mercodia rat/mouse Proinsulin ELISA; controls: no antibody, anti-V5. Background: An ELISA detects its analyte on a solid surface through an enzyme-linked reagent.

The substance “Proinsulin (mouse, Min-6 insulinoma cells) (natural protein)” showed a fold precipitation of Proinsulin over the anti-V5 control above 10 fold.
